Test results: patent US20210277141A1 (ORIMABS, published 2021)
Each block holds one binder with its values, some of them ahead of it.

Key:
[1] = target: T1, Prostate specific membrane antigen (PSMA) expressed on cell surface (human, UniProt Q04609 1-750); assay: cell-based or functional assay
[2] = target: T1, Prostate specific membrane antigen …; assay: cell ELISA on fixed C4-2 cells; 3-fold dilutions from 100 nM to 0.19 pM; detection with HRP anti-human IgG Fc, TMB
[3] = target: T1, Prostate specific membrane antigen …; assay: cell ELISA on fixed C4-2 cells, 100 nM to 0.19 pM, HRP anti-human IgG Fc
[4] = target: T2, biotinylated recombinant extracellular domain of human PSMA (human, UniProt Q04609 44-750, biotinylated with EZ-Link Sulfo-NHS-Biotin (protein:biotin 1:20); residues not stated); assay: capture ELISA: scFv (100 nM to 0.137 nM) captured on anti-Flag, 0.5 µg/ml biotinylated PSMA, streptavidin-HRP; GraphPad Prism
T2 construct: Bought from R&D systems; also called biotinylated PSMA; biotinylated PSMA protein
Description: (§1) Briefly, anti-Flag antibody (Sigma) was coated on ELISA plate at 4° C. overnight in PBS. […] Plate was then washed and incubated with biotinylated PSMA and the binding was detected with streptavidin-HRP, and analyzed by colorimetric development using TMB and then stop buffer. Absorbance at OD450 was measured and the affinity was calculated using GraphPad Prism software.
(§2) There is a Flag tag and a V5 tag at the N and C terminus of scFv, and thus antibodies to these tags were used to capture the scFv for ELISA assay. Briefly, anti-Flag antibody (Sigma) was coated on ELISA plate at 1 μg/ml, 50 μl/well at 4° C. overnight in PBS. […] Plate was washed 6 times with PBST and then incubated with 0.5 μg/ml biotinylated PSMA in PBS™ for 1 more hour at RT. After 6 washes, plate was incubated with 1:1000 diluted streptavidin-HRP (BD Bioscience) in PBS™ at RT for 30 min. Plate was washed again for 6 times and incubated with TMB for 20 min at RT, colorimertric reaction was stopped with stop buffer and the absorbance was read at OD450.

[5] = target: T3, PSMA (form not stated; as named in the summary sentence of paragraph 43) (UniProt Q04609 44-750, limits assumed); assay: not stated (summary sentence in the description)
T3 construct: The summary sentence gives neither the assay nor the form of PSMA, so the value could not be assigned to m8, m9 or m10; also called prostate specific membrane antigen

[6] = target: T2, biotinylated recombinant extracellular …; assay: capture ELISA: anti-Flag coated, gy1 scFv in 3-fold dilutions, 0.5 ug/ml biotinylated PSMA, streptavidin-HRP, TMB
Description: as §1, §2

[7] = target: T1, Prostate specific membrane antigen …; assay: cell ELISA on fixed C4-2 cells; 3-fold dilutions, 1 h, 37 °C; detection with HRP mouse anti-6His, TMB
Description: (§3) Briefly, C4-2 cultured in 96-well plate were fixed with 4% paraformaldehyde, blocked with 3% H₂O₂ and 6% bovine serum albumin sequentially. […] Cell binding was detected with HRP-conjugated mouse anti-6His and colorimetric signals were developed by TMB and stopped by STOP buffer.
(§4) The next day, cells were fixed with 4% paraformaldehyde for 20 min before being treated with 3% H₂O₂ for 20 minutes to block endogenous peroxidase followed by blocking with 6% bovine serum albumin for 30 min at room temperature. […] Cells were then washed with PBST and incubated with HRP-conjugated mouse anti-6His antibody (AbD Serotec, Bio-Rad, Oxford, UK) for 1h at room temperature. Colorimetric signals were developed by addition of 3, 3′, 5, 5′-tetramethylbenzidine (TMB, eBioscience, CA, USA) and stopped by incubation with 1 M […] for 15 minutes. The absorbance was measured at 450 nm using a Sunrise microplate reader (Tecan, Groedig, Austria) and the binding curves were analyzed using GraphPad Prism 5.0 software.

[8] = target: T1, Prostate specific membrane antigen …; assay: cell ELISA on fixed C4-2 cells, 8100 nM to 0.005 nM, HRP anti-6His; one-site binding hyperbola
Description: as §3, §4

T1 sequence (Q04609 whole entry): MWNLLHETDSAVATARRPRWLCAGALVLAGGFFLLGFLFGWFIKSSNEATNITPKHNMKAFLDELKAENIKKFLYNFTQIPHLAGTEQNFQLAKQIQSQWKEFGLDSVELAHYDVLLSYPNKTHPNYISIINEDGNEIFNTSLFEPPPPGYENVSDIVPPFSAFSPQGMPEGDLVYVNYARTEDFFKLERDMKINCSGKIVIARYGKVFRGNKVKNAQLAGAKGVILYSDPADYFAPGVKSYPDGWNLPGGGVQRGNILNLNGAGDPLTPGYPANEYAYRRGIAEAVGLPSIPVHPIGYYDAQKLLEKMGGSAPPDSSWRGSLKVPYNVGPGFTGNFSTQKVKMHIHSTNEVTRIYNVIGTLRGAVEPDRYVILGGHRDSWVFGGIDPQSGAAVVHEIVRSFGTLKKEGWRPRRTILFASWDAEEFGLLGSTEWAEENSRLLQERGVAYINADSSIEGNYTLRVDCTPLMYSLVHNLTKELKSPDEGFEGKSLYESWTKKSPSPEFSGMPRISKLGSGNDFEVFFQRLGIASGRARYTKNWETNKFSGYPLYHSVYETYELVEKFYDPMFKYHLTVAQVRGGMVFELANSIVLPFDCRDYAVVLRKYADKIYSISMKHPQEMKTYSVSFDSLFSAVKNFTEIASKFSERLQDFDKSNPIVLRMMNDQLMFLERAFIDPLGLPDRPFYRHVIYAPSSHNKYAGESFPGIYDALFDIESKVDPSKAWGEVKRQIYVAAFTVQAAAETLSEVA
T2 sequence (Q04609 44-750): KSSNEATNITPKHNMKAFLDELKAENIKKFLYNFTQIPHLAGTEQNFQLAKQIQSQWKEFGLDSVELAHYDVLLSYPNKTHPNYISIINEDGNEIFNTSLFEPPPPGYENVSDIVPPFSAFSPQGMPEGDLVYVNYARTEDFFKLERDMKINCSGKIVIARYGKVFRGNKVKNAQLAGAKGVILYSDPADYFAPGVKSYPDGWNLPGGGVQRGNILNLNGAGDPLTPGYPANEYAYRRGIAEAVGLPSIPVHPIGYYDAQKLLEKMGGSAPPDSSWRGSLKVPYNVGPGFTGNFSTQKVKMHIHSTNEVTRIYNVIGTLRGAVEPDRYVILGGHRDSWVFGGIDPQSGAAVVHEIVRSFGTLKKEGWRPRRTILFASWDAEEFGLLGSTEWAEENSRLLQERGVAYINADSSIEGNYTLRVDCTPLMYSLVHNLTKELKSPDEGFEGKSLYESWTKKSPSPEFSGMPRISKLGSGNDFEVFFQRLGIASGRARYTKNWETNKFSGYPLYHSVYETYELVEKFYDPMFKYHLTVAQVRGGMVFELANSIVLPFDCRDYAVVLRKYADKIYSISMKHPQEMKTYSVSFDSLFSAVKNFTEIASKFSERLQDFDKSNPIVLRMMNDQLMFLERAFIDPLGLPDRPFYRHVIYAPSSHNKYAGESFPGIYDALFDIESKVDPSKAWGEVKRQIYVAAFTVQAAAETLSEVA
T3 sequence (Q04609 44-750 limits assumed): as the sequence (Q04609 44-750) above

B1: PSMAb-DM1 (antibody, human IgG1, lambda, V domains shown)
VH: EVQLVESGGALAKPGGSLRLSCAASGFTLSGYAMHWVRQAPGKGLEWVAVISYDGSNKYYADSVKGRFTVSRDNSKNTLFLQMNSLRPEDTAVYYCAKGLTWGLGDNDALDIWGPGTTVTVSS
VL: QSVLTQPPSVSGAPGQSVIISCTGSSSNIGAGSHVHWYQQVPGTAPKLLIYENTNRPSGVPDRFSGSKSGTSGSLAITGLQPEDEADYYCATWDDSLNGVIFGGGTKATVLG
modifications: DM1 through SMCC linker, drug/Ab conjugation ratio 3.3 per antibody; conjugated residues and chain not stated
notes: also called PSMAb-ADC; PSMAb conjugate with DM1
IC50 of cytotoxicity on C4-2 cells (alamarBlue, 4 days) [1]: 0.12 nM

B2: PSMAb-MMAE (antibody, human IgG1, lambda, V domains shown)
VH: EVQLVESGGALAKPGGSLRLSCAASGFTLSGYAMHWVRQAPGKGLEWVAVISYDGSNKYYADSVKGRFTVSRDNSKNTLFLQMNSLRPEDTAVYYCAKGLTWGLGDNDALDIWGPGTTVTVSS
VL: QSVLTQPPSVSGAPGQSVIISCTGSSSNIGAGSHVHWYQQVPGTAPKLLIYENTNRPSGVPDRFSGSKSGTSGSLAITGLQPEDEADYYCATWDDSLNGVIFGGGTKATVLG
modifications: MC-vc-PAB-MMAE after partial reduction with TCEP, drug loading 3.5 per antibody; conjugated residues and chain not stated
notes: also called PSMAb-ADC; PSMAb conjugate with MMAE
IC50 of cytotoxicity on C4-2 cells (alamarBlue, 4 days) [1]: 0.59 nM

EC50 (read off the curve) [2]: ~0.1 nM
Kd [3]: 0.1 nM
B3: PSMAb (full IgG1 antibody engineered from gy1-2 scFv) (antibody, V domains shown)
VH: EVQLVESGGALAKPGGSLRLSCAASGFTLSGYAMHWVRQAPGKGLEWVAVISYDGSNKYYADSVKGRFTVSRDNSKNTLFLQMNSLRPEDTAVYYCAKGLTWGLGDNDALDIWGPGTTVTVSS
VL: QSVLTQPPSVSGAPGQSVIISCTGSSSNIGAGSHVHWYQQVPGTAPKLLIYENTNRPSGVPDRFSGSKSGTSGSLAITGLQPEDEADYYCATWDDSLNGVIFGGGTKATVLG
notes: IgG1 heavy constant region and lambda light constant region; expressed in CHO-S cells; also called PSMAb full antibody

B4: PSMAb-MMAF (antibody, human IgG1, lambda, V domains shown)
VH: EVQLVESGGALAKPGGSLRLSCAASGFTLSGYAMHWVRQAPGKGLEWVAVISYDGSNKYYADSVKGRFTVSRDNSKNTLFLQMNSLRPEDTAVYYCAKGLTWGLGDNDALDIWGPGTTVTVSS
VL: QSVLTQPPSVSGAPGQSVIISCTGSSSNIGAGSHVHWYQQVPGTAPKLLIYENTNRPSGVPDRFSGSKSGTSGSLAITGLQPEDEADYYCATWDDSLNGVIFGGGTKATVLG
modifications: MC-vc-PAB-MMAF after partial reduction with TCEP, drug loading 3.03 per antibody; conjugated residues and chain not stated
notes: also called PSMAb-ADC; PSMAb conjugate with MMAF
IC50 of cytotoxicity on C4-2 cells (alamarBlue, 4 days) [1]: 0.92 nM

Kd [4]: 1.17 nM
Kd [5]: 0.9 nM
EC50 (read off the curve) [6]: ~1 nM
B5: gy1 scFv (secreted by yeast strain YVH10) (scFv)
scFv: QSVLTQPPSVSGAPGQSVIISCTGSSSNIGAGSHVHWYQQVPGTAPKLLIYGNTNRPSGVPDRFSGSKSGTSGSLAITGLQPEDEADYYCATWDDSLNGVIFGGGTKVTVLGGSSRSSSSGGGGSGGGGEVQLVESGGALAKPGGSLRLSCAASGSTLSGYAMHWVRQAPGKGLEWVAVISYDGSNKYYADSVKGRFTISRDNSKNTLFLQMNSLRPEDTAVYYCAKGLTWGLGDNDALDIWGPGTTVTVSS
notes: also called scFv gy1; anti-PSMA scFv gy1; not shown: Flag tag at the N terminus; V5 tag at the C terminus; 6xHis tag at the C terminus

EC50 (read off the curve) [7]: ~300 nM
Kd [8]: 4.13 nM
B6: E. coli expressed gy1 scFv (pET302-gy1, BL21) (scFv)
scFv: QSVLTQPPSVSGAPGQSVIISCTGSSSNIGAGSHVHWYQQVPGTAPKLLIYGNTNRPSGVPDRFSGSKSGTSGSLAITGLQPEDEADYYCATWDDSLNGVIFGGGTKVTVLGGSSRSSSSGGGGSGGGGEVQLVESGGALAKPGGSLRLSCAASGSTLSGYAMHWVRQAPGKGLEWVAVISYDGSNKYYADSVKGRFTISRDNSKNTLFLQMNSLRPEDTAVYYCAKGLTWGLGDNDALDIWGPGTTVTVSS
notes: also called E. coli expressed scFv gy1; not shown: His tag (purified on HisTrp HP column, detected with anti-6His)
